Results taken from PMC7083075 (Cell, 2019).

Target: T1, hKCNQ1EM (human KCNQ1, residues 76-620) (human, UniProt P51787-1 76-620)
T1 sequence (looked up): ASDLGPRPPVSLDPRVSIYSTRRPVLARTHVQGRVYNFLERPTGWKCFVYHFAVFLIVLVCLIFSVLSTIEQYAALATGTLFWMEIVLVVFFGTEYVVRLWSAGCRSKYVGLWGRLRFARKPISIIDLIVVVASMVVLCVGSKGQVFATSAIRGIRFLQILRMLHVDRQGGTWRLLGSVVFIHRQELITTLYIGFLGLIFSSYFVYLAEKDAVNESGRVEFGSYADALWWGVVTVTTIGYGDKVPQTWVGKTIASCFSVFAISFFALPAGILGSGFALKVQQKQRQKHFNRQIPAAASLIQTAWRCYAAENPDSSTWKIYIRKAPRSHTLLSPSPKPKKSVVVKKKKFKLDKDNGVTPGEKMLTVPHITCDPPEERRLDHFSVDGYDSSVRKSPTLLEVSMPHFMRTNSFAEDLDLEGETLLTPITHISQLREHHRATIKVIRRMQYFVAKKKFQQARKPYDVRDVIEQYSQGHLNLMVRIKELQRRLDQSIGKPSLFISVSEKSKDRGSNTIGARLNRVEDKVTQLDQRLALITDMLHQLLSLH
Assay: cryo-EM structure

stoichiometry N: 4 KCNE3 per KCNQ1 tetramer
B1: KCNE3 (full-length human, N-terminal mCherry2) (natural protein, UniProt Q9Y6H6 1-103, looked up)
chain: METTNGTETWYESLHAVLKALNATLHSNLLCRPGPGLGPDNQTEERRASLPGRDDNSYMYILFVMFLFAVTVGSLILGYTRSRKVDKRSDPYHVYIKNRVSMI
